Results on one substance are retold here after patent US6884866B2, “Bulk drying and the effects of inducing bubble nucleation” (Avant Immunotherapeutics, Inc., priority 2001, dated 2005).

The series can be described thus: Urokinase activity after foam drying and storage. The class given is physicochemical. The procedure:
(7) Freeze-dried samples of Urokinase were rehydrated with 2 ml of 40 wt % sucrose. The solutions were then transferred to 20 ml sterilized glass vials for future preservation by drying. Before drying, the vials were covered with gray slotted rubber stoppers. The vials were dried inside a vacuum chamber. The vials were sitting on the surface of a stainless steel shelf inside the chamber. The shelf temperature was controlled by circulating ethylene glycol/water antifreeze at a controlled temperature inside the shelf. Before the vacuum was applied the shelf temperature was decreased to 5° C. Then the hydrostatic pressure inside the chamber was decreased to 0.5 Torr. Under such conditions, the suspension boiled for 30 min. […] Visually, under these experimental conditions, stable dry foams were formed inside the vials within 3 hours. After an additional 12 hours of drying at room temperature, the temperature was increased to 45° C. and maintained for an additional 24 hours. After that the chamber was filled with dry N2 gas, the rubber stoppers were pushed down and the vials were sealed with aluminum crimp seals.
The samples were assayed immediately after drying and after 30 days of storage at 40° C. After drying the Urokinase, activity was 93% of the initial activity. […]

On to Urokinase, for which the “Urokinase activity, % of the initial activity” value was 90% (after 30 days of storage at 40° C.) and 93% (immediately after drying (40 wt % sucrose, maximum 45° C.)).
